Data taken from publication PMC11524583, “Neurons enhance blood–brain barrier function via upregulating claudin-5 and VE-cadherin expression due to glial cell line-derived neurotrophic factor secretion” (eLife, 2024).
Where “and” joins values, the source holds several entries; their conditions need not be identical. Identical values can stand only once.

Assays:
Assay type in all cases: cell-based, Homo sapiens
[1] = system: hCMEC/D3 mono-culture BBB model; test: TEER of hCMEC/D3 mono-culture BBB model; conditions: for TEER: individual replicates
claudin-5 = test: Western blot of claudin-5 expression in hCMEC/D3 cells
In short: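 hCMEC/D3 cells were cultured in U251/SH-SY5Y co-culture conditioned medium or 200 pg/ml GDNF, with or without 0.25–1.0 μg/ml anti-GDNF antibody, for 6 days; alternatively, after 10 nM siRNA or FOXO1 plasmid transfection, cells received GDNF medium for 72 hr. RIPA lysates were analysed by SDS-PAGE immunoblot with ECL detection.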

VE-cadherin = test: Western blot of VE-cadherin expression in hCMEC/D3 cells
In short: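 hCMEC/D3 cells were cultured 6 days in 200 pg/ml GDNF or U251/SH-SY5Y co-culture conditioned medium, ±0.25–1.0 μg/ml anti-GDNF antibody, with medium changed every 24 hr. Alternatively, cells got 10 nM FOXO1, ETS1 or CDH5 siRNA for 12 hr, then GDNF medium for 72 hr. RIPA lysates were immunoblotted with ECL detection.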

[2] = 50pg, Figure 2D, relative to Con, single replicates
[3] = 100pg, Figure 2D, relative to Con, single replicates
[4] = 200pg, Figure 2D, relative to Con, single replicates
[5] = Figure 2K, hCMEC/D3 cells, group mean, relative to Con
[6] = Figure 2K, hCMEC/D3 cells, individual replicates, relative to Con
[7] = Figure 5G, hCMEC/D3 cells, group mean, NC = 1.000
[8] = Figure 5G, hCMEC/D3 cells, single replicates, relative to NC group

B1: GDNF: glial cell line-derived neurotrophic factor, recombinant protein (R&D system) (protein, UniProt P39905 78-211, looked up)
Glial cell line-derived …: SPDKQMAVLPRRERNRQAAAANPENSRGKGRRGQRGKNRGCVLTAIHLNVTDLGLGYETKEELIFRYCSGSCDAAETTYDKILKNLSRNRRLVSDKVGQACCRPIAFDDDLSFLDDNLVYHILRKHSAKRCGCI
B1 was tested, and the TEER ([1]; Figure 2M, Day3) was 61.71 Ω·cm2 and 62.7 Ω·cm2 and 62.37 Ω·cm2, the TEER ([1]; Figure 2M, Day4) was 64.35 Ω·cm2 and 63.69 Ω·cm2 and 66 Ω·cm2 and 65.34 Ω·cm2 and the TEER ([1]; Figure 2M, Day5) was 68.31 Ω·cm2 and 66.99 Ω·cm2 and 67.65 Ω·cm2 and 67.32 Ω·cm2. The TEER ([1]; Figure 2M, Day6) was 69.3 Ω·cm2 and 67.32 Ω·cm2 and 68.64 Ω·cm2 and 66.99 Ω·cm2, the TEER ([1]; Figure 2O, Day3) was 71.61 Ω·cm2 and 69.3 Ω·cm2 and 68.64 Ω·cm2 and 69.63 Ω·cm2 and the TEER ([1]; Figure 2O, Day4) was 74.25 Ω·cm2 and 76.23 Ω·cm2 and 72.27 Ω·cm2 and 74.91 Ω·cm2. The TEER ([1]; Figure 2O, Day5) was 77.22 Ω·cm2 and 72.93 Ω·cm2 and 74.58 Ω·cm2 and 77.55 Ω·cm2, the TEER ([1]; Figure 2O, Day6) was 76.23 Ω·cm2 and 73.92 Ω·cm2 and 76.56 Ω·cm2 and the TEER values ([1]; hCMEC/D3 mono-culture, 200 pg/ml GDNF, day 6) was “significantly increased”. The “Claudin-5/β-actin Relative Expression, Mean” value (claudin-5; 50pg, Figure 2D, Con = 1.000) was 1.434, the “Claudin-5/β-actin Relative Expression” value (claudin-5; [2]) was 1.162 and 1.622 and 1.551 and 1.402 and the “Claudin-5/β-actin Relative Expression, Mean” value (claudin-5; 100pg, Figure 2D, Con = 1.000) was 1.645. For the same molecule, the “Claudin-5/β-actin Relative Expression” value (claudin-5; [3]) was 1.855 and 1.384 and 1.893 and 1.449, the “Claudin-5/β-actin Relative Expression, Mean” value (claudin-5; 200pg, Figure 2D, Con = 1.000) was 2.035 and the “Claudin-5/β-actin Relative Expression” value (claudin-5; [4]) was 2.027 and 2.014 and 1.765 and 2.333. The “Claudin-5/β-actin Mean” value (claudin-5; Figure 2I, hCMEC/D3 cells, group mean, relative to Con) was 1.520, the “Claudin-5/β-actin Relative Expression” value (claudin-5; Figure 2I, hCMEC/D3 cells, individual replicates, relative to Con) was 1.748 and 1.509 and 1.594 and 1.229 and the “Claudin-5/β-actin Mean” value (claudin-5; [5]) was 1.490. For the same molecule, the “Claudin-5/β-actin Relative Expression” value (claudin-5; [6]) was 1.399 and 1.426 and 1.661 and 1.475, the “Claudin-5/β-actin Relative Expression, Mean” value (claudin-5; [7]) was 1.393 and the “Claudin-5/β-actin Relative Expression” value (claudin-5; [8]) was 1.279 and 1.343 and 1.470 and 1.479. For the same molecule, the claudin-5 expression (claudin-5; hCMEC/D3 cells incubated with conditioned medium or neurotrophic factor vs normal medium) was “induced the expression of claudin-5 and VE-cadherin in a concentration-dependent manner”, the “Claudin-5/β-actin Relative Expression, Mean” value (claudin-5; relative to Con (mean 1.000), mean of 4, Figure 3A) was 1.789 and the “Claudin-5/β-actin Relative Expression, Mean” value (claudin-5; relative to Con (mean 1.000), mean of 4, Figure 3B) was 1.788. The “Claudin-5/β-actin Relative Expression, Mean” value (claudin-5; relative to Con (mean 1.000), mean of 4, Figure 3C) was 2.325, the “Claudin-5/β-actin Relative Expression, Mean” value (claudin-5; relative to Con (mean 1.000), mean of 4, Figure 3D) was 1.421 and the “Claudin-5/β-actin Relative Expression” value (claudin-5; relative to Con (mean 1.000), single replicates, Figure 3A) was 1.761 and 1.657 and 1.692 and 2.046. For the same molecule, the “Claudin-5/β-actin Relative Expression” value (claudin-5; relative to Con (mean 1.000), single replicates, Figure 3B) was 1.594 and 2.146 and 1.495 and 1.917, the “Claudin-5/β-actin Relative Expression” value (claudin-5; relative to Con (mean 1.000), single replicates, Figure 3C) was 2.223 and 2.345 and 2.874 and 1.857 and the “Claudin-5/β-actin Relative Expression” value (claudin-5; relative to Con (mean 1.000), single replicates, Figure 3D) was 1.649 and 1.456 and 1.174 and 1.405. For the same molecule, the “VE-cadherin/β-actin Relative Expression, Mean” value (VE-cadherin; 50pg, Figure 2D, Con = 1.000) was 1.451, the “VE-cadherin/β-actin Relative Expression” value (VE-cadherin; [2]) was 1.462 and 1.352 and 1.497 and 1.494 and the “VE-cadherin/β-actin Relative Expression, Mean” value (VE-cadherin; 100pg, Figure 2D, Con = 1.000) was 1.603. The “VE-cadherin/β-actin Relative Expression” value (VE-cadherin; [3]) was 1.56 and 1.556 and 1.562 and 1.733, the “VE-cadherin/β-actin Relative Expression, Mean” value (VE-cadherin; 200pg, Figure 2D, Con = 1.000) was 1.795 and the “VE-cadherin/β-actin Relative Expression” value (VE-cadherin; [4]) was 1.847 and 2.268 and 1.408 and 1.657. The “VE-cadherin/β-actin Mean” value (VE-cadherin; [5]) was 1.787, the “VE-cadherin/β-actin Relative Expression” value (VE-cadherin; [6]) was 2.089 and 1.381 and 1.914 and 1.765 and the “VE-cadherin/β-actin Relative Expression, Mean” value (VE-cadherin; [7]) was 1.370. For the same molecule, the “VE-cadherin/β-actin Relative Expression” value (VE-cadherin; [8]) was 1.534 and 1.457 and 1.274 and 1.216.
